From patent publication US20250361296A1 (BIOCYTOGEN PHARMACEUTICALS BEIJING, published 2025)

Key:
Assay in all cases: flow cytometry, CHO-S cells expressing the target; as to Percentage of Positive Cells: test concentration or dose not given here
[1] = target: T1, human SIGLEC5 on CHO-S-hSIGLEC5 cells (human, UniProt O15389 17-441)
T1 sequence: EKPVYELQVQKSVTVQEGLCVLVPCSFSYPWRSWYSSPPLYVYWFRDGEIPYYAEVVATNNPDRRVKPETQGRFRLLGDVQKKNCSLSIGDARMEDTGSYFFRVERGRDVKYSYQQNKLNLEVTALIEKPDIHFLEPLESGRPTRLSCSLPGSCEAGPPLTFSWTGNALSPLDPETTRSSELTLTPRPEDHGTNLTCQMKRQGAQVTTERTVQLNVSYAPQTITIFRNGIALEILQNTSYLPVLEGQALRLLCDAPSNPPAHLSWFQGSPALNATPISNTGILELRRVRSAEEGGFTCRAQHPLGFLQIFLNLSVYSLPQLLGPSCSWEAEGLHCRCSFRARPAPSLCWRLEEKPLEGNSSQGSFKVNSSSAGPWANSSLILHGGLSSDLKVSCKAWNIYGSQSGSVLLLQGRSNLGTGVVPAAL
Protocol: (§1) CHO-S-hSIGLEC15 cells, CHO-S-mSIGLEC15 cells, CHO-S-fasSIGLEC15 cells or CHO-S-dSIGLEC15 cells were transferred to a 96-well plate at a density of 5×10⁴ cells/well respectively. Serially diluted sample anti-SIGLEC15 antibodies were added to the 96-well plate, and incubated at 4° C. for 30 min. Then, the cells were incubated with the secondary antibody anti-hIgG-Fc-Alex Flour 647 (RL1-H) (Jackson ImmunoResearch Laboratories, Inc., 109-606-170) at 4° C. in the dark for 15 minutes before flow cytometry analysis.
(§2) Another similar experiment was performed to determine whether the anti-SIGLEC15 antibodies can bind with other SIGLEC family proteins. CHO-S-hSIGLEC1 cells (expressing hSIGLEC1, SEQ ID NO: 49)), CHO-S-hSIGLEC2 cells (expressing hSIGLEC2, SEQ ID NO: 50), CHO-S-hSIGLEC4 cells (expressing hSIGLEC4, SEQ ID NO: 51), CHO-S-hSIGLEC5 cells (expressing hSIGLEC5, SEQ ID NO: 52), CHO-S-hSIGLEC6 cells (expressing hSIGLEC6, SEQ ID NO: 53), CHO-S-hSIGLEC7 cells (expressing hSIGLEC7, SEQ ID NO: 54), CHO-S-hSIGLEC8 cells (expressing hSIGLEC8, SEQ ID NO: 55), CHO-S-hSIGLEC9 cells (expressing hSIGLEC9, SEQ ID NO: 56), CHO-S-hSIGLEC10 cells (expressing hSIGLEC10, SEQ ID NO: 57), CHO-S-hSIGLEC11 cells (expressing hSIGLEC11, SEQ ID NO: 58), CHO-S-hSIGLEC12 cells (expressing hSIGLEC12, SEQ ID NO: 59), CHO-S-hSIGLEC14 cells (expressing hSIGLEC14, SEQ ID NO: 60) or CHO-S-hSIGLEC16 cells (expressing hSIGLEC16, SEQ ID NO: 61) were used.

[2] = target: human SIGLEC6 on CHO-S-hSIGLEC6 cells (human, UniProt O43699 27-347)
Sequence of human SIGLEC6 on CHO-S-hSIGLEC6 cells (O43699 27-347): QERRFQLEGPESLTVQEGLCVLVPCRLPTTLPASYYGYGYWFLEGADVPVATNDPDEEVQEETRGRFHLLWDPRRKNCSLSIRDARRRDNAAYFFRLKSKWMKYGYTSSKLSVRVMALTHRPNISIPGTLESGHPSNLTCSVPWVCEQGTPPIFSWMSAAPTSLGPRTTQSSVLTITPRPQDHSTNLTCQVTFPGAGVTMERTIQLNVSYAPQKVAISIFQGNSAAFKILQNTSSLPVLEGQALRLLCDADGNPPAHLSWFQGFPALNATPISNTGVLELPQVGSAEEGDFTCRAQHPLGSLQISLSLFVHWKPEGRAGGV
Protocol: as §1, §2

[3] = target: human SIGLEC9 on CHO-S-hSIGLEC9 cells (human, UniProt Q9Y336 18-348)
Sequence of human SIGLEC9 on CHO-S-hSIGLEC9 cells (Q9Y336 18-348): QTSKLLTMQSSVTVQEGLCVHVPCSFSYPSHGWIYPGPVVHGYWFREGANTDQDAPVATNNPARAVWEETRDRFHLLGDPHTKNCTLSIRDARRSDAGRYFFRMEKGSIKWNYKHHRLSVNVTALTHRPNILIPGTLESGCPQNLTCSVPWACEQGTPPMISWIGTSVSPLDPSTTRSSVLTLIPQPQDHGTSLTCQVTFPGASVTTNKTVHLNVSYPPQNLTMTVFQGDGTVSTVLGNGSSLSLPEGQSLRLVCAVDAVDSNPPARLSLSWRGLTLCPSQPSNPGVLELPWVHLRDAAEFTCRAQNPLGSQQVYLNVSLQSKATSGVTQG
Protocol: as §1, §2

[4] = target: T2, human SIGLEC11 on CHO-S-hSIGLEC11 cells (human, UniProt Q96RL6 104-561)
T2 sequence: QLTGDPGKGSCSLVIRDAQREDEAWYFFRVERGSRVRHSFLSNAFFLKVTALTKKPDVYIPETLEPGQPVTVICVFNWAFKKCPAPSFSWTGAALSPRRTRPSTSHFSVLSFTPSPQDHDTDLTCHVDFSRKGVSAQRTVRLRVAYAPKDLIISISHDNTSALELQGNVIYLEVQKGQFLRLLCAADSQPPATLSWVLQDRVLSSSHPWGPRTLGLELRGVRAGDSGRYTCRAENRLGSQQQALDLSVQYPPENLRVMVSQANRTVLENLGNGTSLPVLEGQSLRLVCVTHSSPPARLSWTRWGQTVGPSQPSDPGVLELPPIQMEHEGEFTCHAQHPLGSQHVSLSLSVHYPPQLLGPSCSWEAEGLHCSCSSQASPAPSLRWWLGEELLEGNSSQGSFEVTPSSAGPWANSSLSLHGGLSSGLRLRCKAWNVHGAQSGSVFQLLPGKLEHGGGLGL
Protocol: as §1, §2

[5] = target: human SIGLEC12 on CHO-S-hSIGLEC12 cells (human, UniProt Q96PQ1 19-481)
Sequence of human SIGLEC12 on CHO-S-hSIGLEC12 cells (Q96PQ1 19-481): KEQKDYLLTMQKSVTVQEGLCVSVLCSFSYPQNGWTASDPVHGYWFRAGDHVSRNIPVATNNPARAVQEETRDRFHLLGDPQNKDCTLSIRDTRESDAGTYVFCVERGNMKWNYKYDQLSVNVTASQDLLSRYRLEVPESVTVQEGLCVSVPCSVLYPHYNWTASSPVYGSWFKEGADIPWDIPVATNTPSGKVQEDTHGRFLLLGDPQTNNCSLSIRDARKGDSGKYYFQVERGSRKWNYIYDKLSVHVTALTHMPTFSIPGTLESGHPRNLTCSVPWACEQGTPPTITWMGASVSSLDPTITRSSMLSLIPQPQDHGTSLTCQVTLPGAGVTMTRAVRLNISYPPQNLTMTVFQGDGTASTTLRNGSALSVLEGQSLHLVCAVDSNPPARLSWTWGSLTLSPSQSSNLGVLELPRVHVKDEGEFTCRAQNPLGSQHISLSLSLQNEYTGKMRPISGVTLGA
Protocol: as §1, §2

[6] = target: T3, human SIGLEC14 on CHO-S-hSIGLEC14 cells (human, UniProt Q08ET2 17-358)
T3 sequence: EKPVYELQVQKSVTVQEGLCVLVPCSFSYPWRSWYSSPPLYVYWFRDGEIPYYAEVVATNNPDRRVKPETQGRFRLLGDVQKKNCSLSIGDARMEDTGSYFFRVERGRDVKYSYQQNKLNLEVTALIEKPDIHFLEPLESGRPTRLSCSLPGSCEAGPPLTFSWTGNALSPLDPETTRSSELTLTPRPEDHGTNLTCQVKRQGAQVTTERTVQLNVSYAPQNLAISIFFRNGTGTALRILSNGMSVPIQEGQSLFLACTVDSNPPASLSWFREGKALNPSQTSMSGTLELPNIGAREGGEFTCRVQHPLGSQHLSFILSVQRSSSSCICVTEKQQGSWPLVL
Protocol: as §1, §2

B1: anti-SIGLEC15 antibody 10C9 (antibody, human IgG1, V domains shown)
VH: QVQLVQSGAEVKKPGATVKVSCKASGYTFTNYGFSWVRQAPGQGLEWMGWINTYNDNTNYAQKFQGRVTMTTDTSTSTAYMELRSLRSDDTAVYYCARDGLWFGELPHYFDYWGQGTLVTVSS
VL: DIQLTQSPLSSPVTLGQPASISCRSSQSLVNSDGETFLSWLQQRPGQPPRLLIYKISNRFSGVPDRFSGSGAGTDFTLKISRVEAEDVGVYYCMQATQFPHTFGQGTKLEIK
Percentage of Positive Cells [1]: 0.2%
binding result [1]: no binding
Percentage of Positive Cells [2]: 0.5%
binding result [2]: no binding
Percentage of Positive Cells [3]: 0.1%
binding result [3]: no binding
Percentage of Positive Cells [4]: 0.1%
binding result [4]: no binding
Percentage of Positive Cells [5]: 0.1%
binding result [5]: no binding
Percentage of Positive Cells [6]: 0.2%
binding result [6]: no binding

B2: anti-SIGLEC15 antibody 10A7 (antibody, human IgG1, V domains shown)
VH: EVQLVQSGGGLVQPGGSLRLSCAASGFTFSNYEMNWVRQAPGKGLEWISYISNSGSTIYYADSVKGRFTISRDDAKNSLYLQMNSLRAEDTAVYYCAREDYDSSGYYWFDPWGQGTPVTVSS
VL: DIQLTQSPSSVSASVGDRVTITCRASQGISSWLAWYQQKPGKAPKLLIYAASSLQSGVPSRFSGSGSGTDFTLTINSLQPEDFATYYCQQTNSFPLTFGGGTKVEIK
Percentage of Positive Cells [1]: 0.2%
binding result [1]: no binding
Percentage of Positive Cells [2]: 0.7%
binding result [2]: no binding
Percentage of Positive Cells [3]: 0.3%
binding result [3]: no binding
Percentage of Positive Cells [4]: 0.1%
binding result [4]: no binding
Percentage of Positive Cells [5]: 0%
binding result [5]: no binding
Percentage of Positive Cells [6]: 0.1%
binding result [6]: no binding

B3: anti-SIGLEC15 antibody 23F4 (antibody, human IgG1, V domains shown)
VH: QVQLQQWGAGLLKPSETLSLTCAVYGGSFSGYFWSWIRQPPGKGLEWIGEINHSGSTNYNPSLKSRVTLSVDTSKNQFSLKLSSVTAADTAVYYCAREGDSSSWGNWFDPWGQGTLVTVSS
VL: EIVLTQSPGTLSLSPGERATLSCRASQSVSSSYLAWYQQKPGQAPRFLIYGASSRATGIPDRFSGSGSGTDFTLTISRLEPEDFAVYYCQQFGNSPLTFGGGTKVEIK
Percentage of Positive Cells [1]: 7%
binding result [1]: no binding
Percentage of Positive Cells [2]: 1.5%
binding result [2]: no binding
Percentage of Positive Cells [3]: 0.7%
binding result [3]: no binding
Percentage of Positive Cells [4]: 0.2%
binding result [4]: no binding
Percentage of Positive Cells [5]: 0.4%
binding result [5]: no binding
Percentage of Positive Cells [6]: 1.3%
binding result [6]: no binding
